# From doi:10.1101/2021.09.24.461759
# Target: pre-fusion, protease-resistant, trimeric transmembrane (TM)-deleted spike (S) glycoprotein from SARS-CoV-2 (SARS-CoV-2 (Wuhan-Hu-1) | not stated)
# Test: SEC + other: SDS-PAGE
substance,measurement,value
"pre-fusion, protease-resistant, trimeric transmembrane (TM)-deleted spike (S) glycoprotein from SARS-CoV-2",stoichiometry N,3
